Measured values from patent publication US20080050387A1, “Non-Androgen Dependent Roles for Androgen Receptor and Non-Androgen Related Inhibitors of Androgen Receptor” (priority 2003, published 2008).

Legend:
AR (ARN, ARDBD, ARLBD) = assay: GST pull-down assay ARA67 / AR; assay type: binding, human
Protocol: GST-ARN, GST-ARA67 fusion proteins, and GST control protein were expressed in BL21 (DE3)pLysS bacteria strain (Stratagene) and purified with glutathione-Sepharose beads as instructed by the manufacturer (Amersham Pharmacia). In vitro [^35S]methionine-labeled AR, ARN, AR DBD, AR LBD and ARA67 proteins were generated using TNT-coupled Reticulocyte Lysate Systems (Promega). For in vitro interaction, mixtures of glutathione beads bound GST fusion proteins and 5 μl [^35S]methionine-labeled input proteins in 100 μl interaction buffer (20 mM Tris/pH8.0, 60 mM NaCl, 6 mM MgCl2, 1 mM EDTA, 0.05% Nonidet P-40, 1 mM DTT, 8% glycerol, 1 mM PMSF) were incubated in the presence or absence of 10 μM dihydrotestosterone (DHT) on a rotating disk at 4° C. for 2 h. After washing with NETN buffer (20 mM Tris/pH8.0, 100 mM NaCl, 6 mM MgCl2, 1 mM EDTA, 0.5% Nonidet P-40, 1 mM DTT, 8% glycerol, 1 mM PMSF) four times, the bound proteins were separated on 8-13% SDS-PAGE and visualized by autoradiography.

AR = AR transactivation reporter gene assay in H1299 cells with ARA67; assay type: cell-based, human; settings: H1299 cells, 600 ng construct, MMTV-luc
Protocol: H1299 and COS-1 cells were maintained in Dulbecco's modified Eagle's medium (DMEM) (Life Technologies, Inc.) supplemented with 10% heat inactivated fetal bovine serum (FBS). LNCap cells were maintained in RPMI 1640 supplemented with […]. All media contain 100 units penicillin, 100 μg/ml streptomycin and 2 mM L-glutamine. Cells were seeded to a density of 50-60% confluency for transfection. In transfections where H1299 and COS-1 cells were used, the calcium phosphate precipitation method was used as described (Pan H J, et al. 1999. Endocrine 11:321-327) unless otherwise noted. […] In other reporter gene assays, where ligand treatment was required, cell culture media were changed to DMEM containing 10% charcoal-dextran-stripped FBS (CD-FBS) 2 h before transfection. After 16-18 h transfection, cells were treated with medium containing either vehicle or ligands for another 20-24 h and then cells were harvested. With LNCap cells transfection, the cells were treated with fresh RPMI 1640 containing 10% CD-FBS before transfection with SuperFect performed according to the manufacturer's protocol (Qiagen). After transfection, cells were allowed to recover in fresh RPMI 1640 containing 10% CD-FBS for 8-12 h, and then treated with either vehicle or ligands for another 20-24 h before harvesting. Each experiment was repeated at least three times.

AR, sequence (P10275 with tags, fused parts or gaps DEL79-80/DUP473-473): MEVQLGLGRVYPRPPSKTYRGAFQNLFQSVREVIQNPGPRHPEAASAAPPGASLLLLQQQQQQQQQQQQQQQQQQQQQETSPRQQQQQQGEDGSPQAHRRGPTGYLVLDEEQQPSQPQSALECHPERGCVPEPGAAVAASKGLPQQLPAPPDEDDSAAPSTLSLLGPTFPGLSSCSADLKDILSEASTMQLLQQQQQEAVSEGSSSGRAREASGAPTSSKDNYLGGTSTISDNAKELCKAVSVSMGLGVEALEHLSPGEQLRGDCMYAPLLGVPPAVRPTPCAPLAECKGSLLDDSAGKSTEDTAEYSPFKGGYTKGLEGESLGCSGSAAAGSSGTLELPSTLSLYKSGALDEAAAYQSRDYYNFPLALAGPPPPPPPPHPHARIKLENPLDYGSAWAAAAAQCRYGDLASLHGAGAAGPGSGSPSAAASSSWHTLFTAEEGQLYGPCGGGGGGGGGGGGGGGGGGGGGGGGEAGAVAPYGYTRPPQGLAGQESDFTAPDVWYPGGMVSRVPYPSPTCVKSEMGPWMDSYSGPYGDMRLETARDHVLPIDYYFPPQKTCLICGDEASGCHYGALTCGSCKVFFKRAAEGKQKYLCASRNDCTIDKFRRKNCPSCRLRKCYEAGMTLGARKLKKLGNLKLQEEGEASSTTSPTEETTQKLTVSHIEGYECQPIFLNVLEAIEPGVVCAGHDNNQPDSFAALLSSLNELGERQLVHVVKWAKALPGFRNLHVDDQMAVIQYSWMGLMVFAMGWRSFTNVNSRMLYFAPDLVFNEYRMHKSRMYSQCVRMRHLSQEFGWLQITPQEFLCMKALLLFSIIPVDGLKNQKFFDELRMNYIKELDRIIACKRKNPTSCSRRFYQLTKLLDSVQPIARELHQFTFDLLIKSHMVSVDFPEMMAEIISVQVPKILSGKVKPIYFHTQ

| Molecule | interaction with ARN (AR (ARN, ARDBD, ARLBD)) | suppression of AR transactivation by ARA67 fragments (AR) | interaction with AR LBD (AR (ARN, ARDBD, ARLBD)) |
| --- | --- | --- | --- |
| ARA67281-585: C-terminal region of ARA67, residues 281-585 (protein) GSKHPKYSDTLLDYGFYLLNVDNICQSVAIYQAALDIRQSVFGGKNIHVATAHEDLAYSSYVHQYSSGKFDNALFHAERAIGIITHILPEDHLLLASSKRVKALILEEIAIDCHNKETEQRLLQEAHDLHLSSLQLAKKAFGEFNVQTAKHYGNLGRLYQSMRKFKEAEEMHIKAIQIKEQLLGQEDYEVALSVGHLASLYNYDMNQYENAEKLYLRSIAIGKKLFGEGYSGLEYDYRGLIKLYNSIGNYEKVFEYHNVLSNWNRLRDRQYSVTDALEDVSTSPQSTEEVVQSFLISQNVEGPSC | relatively weak | could also suppress AR transactivation |  |
| ARA678-140: truncated ARA67 fragment, residues 8-140 (protein) WIPETLYNTAISAVVDNYIRSRRDIRSLPENIQFDVYYKLYQQGRLCQLGSEFCELEVFAKVLRALDKRHLLHHCFQALMDHGVKVASVLAYSFSRRCSYIAESDAAVKEKAIQVGFVLGGFLSDAGWYSDAE | slightly stronger interaction |  |  |
| ARA671-550: ARA67 lacking the PEST sequence (protein, UniProt Q92624 1-550, looked up, fragment) MAAVELEWIPETLYNTAISAVVDNYIRSRRDIRSLPENIQFDVYYKLYQQGRLCQLGSEFCELEVFAKVLRALDKRHLLHHCFQALMDHGVKVASVLAYSFSRRCSYIAESDAAVKEKAIQVGFVLGGFLSDAGWYSDAEKVFLSCLQLCTLHDEMLHWFRAVECCVRLLHVRNGNCKYHLGEETFKLAQTYMDKLSKHGQQANKAALYGELCALLFAKSHYDEAYKWCIEAMKEITAGLPVKVVVDVLRQASKACVVKREFKKAEQLIKHAVYLARDHFGSKHPKYSDTLLDYGFYLLNVDNICQSVAIYQAALDIRQSVFGGKNIHVATAHEDLAYSSYVHQYSSGKFDNALFHAERAIGIITHILPEDHLLLASSKRVKALILEEIAIDCHNKETEQRLLQEAHDLHLSSLQLAKKAFGEFNVQTAKHYGNLGRLYQSMRKFKEAEEMHIKAIQIKEQLLGQEDYEVALSVGHLASLYNYDMNQYENAEKLYLRSIAIGKKLFGEGYSGLEYDYRGLIKLYNSIGNYEKVFEYHNVLSNWNRLRDRQ |  | didn't show a stronger suppression effect than full length ARA67 |  |
| GST-ARA67170-338: GST-fused ARA67 fragment 170-338, which contains the LXXLL motif (protein) LHVRNGNCKYHLGEETFKLAQTYMDKLSKHGQQANKAALYGELCALLFAKSHYDEAYKWCIEAMKEITAGLPVKVVVDVLRQASKACVVKREFKKAEQLIKHAVYLARDHFGSKHPKYSDTLLDYGFYLLNVDNICQSVAIYQAALDIRQSVFGGKNIHVATAHEDLAY | very weak interaction |  | no interaction |
| ARA671-280: N-terminal region of ARA67, residues 1-280 (protein) MAAVELEWIPETLYNTAISAVVDNYIRSRRDIRSLPENIQFDVYYKLYQQGRLCQLGSEFCELEVFAKVLRALDKRHLLHHCFQALMDHGVKVASVLAYSFSRRCSYIAESDAAVKEKAIQVGFVLGGFLSDAGWYSDAEKVFLSCLQLCTLHDEMLHWFRAVECCVRLLHVRNGNCKYHLGEETFKLAQTYMDKLSKHGQQANKAALYGELCALLFAKSHYDEAYKWCIEAMKEITAGLPVKVVVDVLRQASKACVVKREFKKAEQLIKHAVYLARDHF | relatively weak | better suppressor than ARA67281-550 and ARA67281-585 |  |
